One test has as its target HLA-A*02:06. Briefly: IEDB peptide-MHC binding, purified MHC/competitive/fluorescence; filed as Kd, often an IC50 or EC50 that approximates it; ≥ and ≤ were set here for values at or beyond the usual limits of such assays. The following applies: source organism: Human immunodeficiency virus 1.
The next test deals with HLA-A*02:11. The description is as above.
In another test the target is HLA-A*02:03. The test is described as above.
Test [1] deals with HLA-A*02:01. Described as above.
In the next test the target is HLA-A*02:12. The description is as above.
A further test concerns the target HLA-A*69:01. The description is as above.
Another test deals with HLA-A*02:19. The description is as above.
Another test has as its target HLA-A*02:16. The test is described as above.
Test [2] concerns the target HLA-A*11:01. Briefly: IEDB peptide-MHC binding, purified MHC/competitive/fluorescence; ≥ and ≤ were set here for values at or beyond the usual limits of such assays.
In test [3] the target is HLA-A*02:01. The description is as above.
For test [4], the target named is HLA-A*03:01. Described as above.
Test [5] addresses HLA-A*01:01. Described as above.
Test [6] has as its target HLA-B*15:01. Described as above.
For another test, the target named is HLA-B*39:01. In words: IEDB peptide-MHC binding, purified MHC/competitive/fluorescence; filed as Kd, often an IC50 or EC50 that approximates it; ≥ and ≤ were set here for values at or beyond the usual limits of such assays.
The target of the next test is HLA-B*57:01. The test is described as above.
The next test has as its target HLA-B*46:01. The test is described as above.
In another test the target is HLA-B*18:01. The description is as above.
Test [7] has as its target HLA-B*15:01. The description is as above.
A further test has as its target HLA-A*24:03. The description is as above.
In test [8] the target is HLA-A*03:01. The test is described as above.
Another test concerns the target HLA-A*68:02. Described as above.
A further test addresses HLA-B*27:03. The test is described as above.
A further test concerns the target HLA-B*51:01. The test is described as above.
The next test deals with HLA-A*26:01. Described as above.
Another test concerns the target HLA-A*29:02. The description is as above. The settings on record: source organism: Brucella suis ATCC 23445.
A further test has as its target HLA-B*15:17. The description is as above.
The target in a further test is HLA-B*40:01. Described as above. The following applies: source organism: Salmonella enterica subsp. enterica serovar Typhi.
In the next test the target is HLA-B*27:05. The description is as above. The following applies: source organism: Salmonella enterica subsp. enterica serovar Typhi.
For a further test, the target named is HLA-A*31:01. In words: IEDB peptide-MHC binding, purified MHC/competitive/radioactivity; filed as Kd, often an IC50 or EC50 that approximates it; ≥ and ≤ were set here for values at or beyond the usual limits of such assays. The following applies: source organism: Vaccinia virus WR.
The target of test [9] is HLA-A*11:01. Described as above. The following applies: source organism: Vaccinia virus WR.
Another test addresses HLA-A*33:01. Described as above. The following applies: source organism: Vaccinia virus WR.
The next test concerns the target HLA-A*68:01. The test is described as above. The settings on record: source organism: Vaccinia virus WR.
Test [10] concerns the target HLA-A*03:01. Described as above. The following applies: source organism: Vaccinia virus WR.
Test [11] has as its target HLA-A*11:01. In words: IEDB peptide-MHC binding, purified MHC/competitive/fluorescence; filed as Kd, often an IC50 or EC50 that approximates it; ≥ and ≤ were set here for values at or beyond the usual limits of such assays. The following applies: source organism: Human immunodeficiency virus 1.
A further test has as its target HLA-A*26:02. Described as above. The following applies: source organism: Human immunodeficiency virus 1.
In test [12] the target is HLA-A*01:01. The test is described as above. The following applies: source organism: Human immunodeficiency virus 1.
The target in the next test is HLA-A*30:01. The test is described as above. The settings on record: source organism: Human immunodeficiency virus 1.
In a further test the target is HLA-B*07:02. Briefly: IEDB peptide-MHC binding, purified MHC/competitive/fluorescence; ≥ and ≤ were set here for values at or beyond the usual limits of such assays. The settings on record: source organism: Zaire ebolavirus.
The target in the next test is HLA-A*24:02. The description is as above. The settings on record: source organism: Zaire ebolavirus.
Where [13] appears, read: source organism: Human immunodeficiency virus 1.
Setting [14] is: source organism: Vaccinia virus.
Where [15] appears, read: source organism: Zaire ebolavirus.
Where [16] appears, read: source organism: Escherichia coli HS.
[17] abbreviates: source organism: Brucella suis ATCC 23445.
Setting [18] is: source organism: Salmonella enterica subsp. enterica serovar Typhi.
Setting [19] is: source organism: Vaccinia virus Copenhagen.

Bounds are passed on as bounds.

For the sequence ALVEMGHHV, the Kd worked out at 0.00118 µM with HLA-A*02:06; 0.0018 µM with HLA-A*02:11 (setting [13]); 0.00364 µM in the test with HLA-A*02:03 (setting [13]); 0.334 µM with HLA-A*02:01 [1] (setting [13]); 0.0175 µM with HLA-A*02:12 (setting [13]); 2.01 µM with HLA-A*69:01 (setting [13]). Further, the Kd with HLA-A*02:19 (setting [13]) was 0.134 µM; in the test with HLA-A*02:16 (setting [13]) it was 0.00307 µM.
In the case of AVDRGCLRI, the IC50 in the test with HLA-A*11:01 [2] (setting [14]) is 11.8 µM; with HLA-A*02:01 [3] (setting [14]) it was 3.51 µM; in the test with HLA-A*03:01 [4] (setting [14]), 16.1 µM; in the test with HLA-A*01:01 [5] (setting [14]), at least 183 µM.
For DSDNTQSEH, in the test with HLA-A*01:01 [5] (setting [15]), the half-inhibitory concentration (IC50) was at least 84.2 µM.
As for FLESGAVKY, the IC50 with HLA-B*15:01 [6] (setting [15]) came to 19.5 µM; with HLA-A*02:01 [3] (setting [15]), 26.3 µM; with HLA-A*01:01 [5] (setting [15]) it was 3.4 µM.
For ISLWGSLLK, the Kd with HLA-B*39:01 (setting [16]), with HLA-B*57:01 (setting [16]), with HLA-B*46:01 (setting [16]), with HLA-B*18:01 (setting [16]), in the test with HLA-B*15:01 [7] (setting [16]) and in the test with HLA-A*02:01 [1] (setting [16]) was at least 20 µM throughout. The Kd in the test with HLA-A*24:03 (setting [16]) was at least 20 µM; with HLA-A*02:12 (setting [16]) it was at least 20 µM; with HLA-A*03:01 [8] (setting [16]) it was 0.0339 µM; in the test with HLA-A*69:01 (setting [16]), at least 20 µM; with HLA-A*02:19 (setting [16]) it was at least 20 µM; in the test with HLA-A*02:16 (setting [16]) it was at least 20 µM. The Kd with HLA-A*68:02 (setting [16]), in the test with HLA-B*27:03 (setting [16]), with HLA-B*51:01 (setting [16]) and with HLA-A*26:01 (setting [16]) was at least 20 µM throughout.
Regarding ITAVNRYFK, the dissociation constant (Kd) in the test with HLA-B*39:01 (setting [17]), with HLA-B*57:01 (setting [17]), with HLA-A*02:11 (setting [17]), with HLA-A*02:03 (setting [17]), with HLA-B*46:01 (setting [17]) and in the test with HLA-B*18:01 (setting [17]) was at least 20 µM in each case. In addition, the Kd with HLA-B*15:01 [7] (setting [17]) was at least 20 µM; in the test with HLA-A*02:01 [1] (setting [17]) it was at least 20 µM; in the test with HLA-A*24:03 (setting [17]) it was at least 20 µM; in the test with HLA-A*02:12 (setting [17]) it was at least 20 µM; in the test with HLA-A*03:01 [8] (setting [17]), 0.057 µM; with HLA-A*29:02, 0.757 µM. Besides, the Kd in the test with HLA-A*69:01 (setting [17]), with HLA-B*15:17 (setting [17]), with HLA-A*02:19 (setting [17]), with HLA-A*02:16 (setting [17]), in the test with HLA-A*68:02 (setting [17]) and with HLA-B*27:03 (setting [17]) was at least 20 µM throughout. The Kd with HLA-B*51:01 (setting [17]) and with HLA-A*26:01 (setting [17]) was at least 20 µM in each case.
Consider KMGKAGYVT, for which the Kd is 0.609 µM in the test with HLA-A*02:06; 0.0245 µM with HLA-A*02:11 (setting [13]); 0.196 µM with HLA-A*02:03 (setting [13]); 0.323 µM with HLA-A*02:01 [1] (setting [13]); 1.21 µM with HLA-A*02:12 (setting [13]); at least 20 µM with HLA-A*69:01 (setting [13]). Moreover, the Kd is 6 µM in the test with HLA-A*02:19 (setting [13]) and 0.261 µM with HLA-A*02:16 (setting [13]).
Consider KQFCLSILL, for which the Kd with HLA-B*39:01 (setting [18]) stood at 0.0646 µM; in the test with HLA-B*40:01, 0.0905 µM; with HLA-A*02:01 [1] (setting [18]), 0.0029 µM; in the test with HLA-B*27:05, 0.208 µM.
Regarding LSGVNNLEH, the IC50 with HLA-A*11:01 [2] (setting [15]) was 5.06 µM; with HLA-A*03:01 [4] (setting [15]), 43.5 µM; with HLA-A*01:01 [5] (setting [15]) it was at least 167 µM.
For the sequence MEDNFSIYI, the equilibrium dissociation constant (Kd) is 0.0034 µM with HLA-B*40:01 and at least 20 µM in the test with HLA-B*15:01 [7] (setting [18]).
MLEGETKLY: the Kd with HLA-A*31:01 is at least 61.4 µM; with HLA-A*11:01 [9], 7.06 µM; with HLA-A*33:01, at least 57.1 µM; with HLA-A*68:01, 17 µM; with HLA-A*03:01 [10] it was 0.22 µM. Besides, the IC50 in the test with HLA-B*15:01 [6] (setting [19]) is 61.7 µM; in the test with HLA-A*02:01 [3] (setting [19]), at least 166 µM; with HLA-A*01:01 [5] (setting [19]) it was 8.1 µM.
In the case of RSLYNTVAVLY, the equilibrium dissociation constant (Kd) with HLA-A*11:01 [11] is 1.52 µM; in the test with HLA-A*02:06, 0.597 µM; with HLA-A*02:03 (setting [13]) it was 1.36 µM; in the test with HLA-B*18:01 (setting [13]), 0.25 µM; with HLA-B*15:01 [7] (setting [13]), 1.32 µM; with HLA-A*26:02, 2.36 µM. Moreover, the Kd is at least 20 µM with HLA-A*01:01 [12], 0.0118 µM with HLA-B*15:17 (setting [13]) and at least 20 µM with HLA-A*30:01.
As for RTFSIPLGV, the IC50 with HLA-A*11:01 [2] (setting [15]) was 1.62 µM; with HLA-B*07:02, at least 167 µM; in the test with HLA-B*15:01 [6] (setting [15]), at least 221 µM; with HLA-A*02:01 [3] (setting [15]), 0.321 µM; with HLA-A*03:01 [4] (setting [15]) it was 3.46 µM; with HLA-A*24:02, 33 µM.

Source of the values: the Immune Epitope Database (IEDB).
